The target of one data set is T1, human CYP1A2 (Homo sapiens, UniProt P05177).
T1 sequence (P05177 1-516): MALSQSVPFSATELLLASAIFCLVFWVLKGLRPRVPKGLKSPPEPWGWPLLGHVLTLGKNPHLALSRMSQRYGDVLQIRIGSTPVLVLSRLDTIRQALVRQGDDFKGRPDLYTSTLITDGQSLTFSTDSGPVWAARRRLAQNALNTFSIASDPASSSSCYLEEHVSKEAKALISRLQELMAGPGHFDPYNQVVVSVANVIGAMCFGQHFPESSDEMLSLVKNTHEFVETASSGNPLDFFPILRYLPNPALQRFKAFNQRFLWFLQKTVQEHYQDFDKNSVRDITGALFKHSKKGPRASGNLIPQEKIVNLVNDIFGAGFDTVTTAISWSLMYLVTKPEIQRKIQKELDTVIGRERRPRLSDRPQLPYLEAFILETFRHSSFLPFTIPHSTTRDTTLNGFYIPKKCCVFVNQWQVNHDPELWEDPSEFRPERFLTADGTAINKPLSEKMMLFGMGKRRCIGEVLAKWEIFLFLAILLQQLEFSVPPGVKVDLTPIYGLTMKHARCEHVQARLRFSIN
As to conditions: cited from earlier work.

Data set [1] in a line: Rates of piceatannol formation (trans-resveratrol hydroxylation) at fixed substrate concentration, HPLC. It is filed as biochemical. To be noted: fixed substrate concentration 100 μM trans-resveratrol. Here is the method:
(§1) Oxidation of trans-resveratrol, a substrate of human CYP1A2, by CYP102A1 was identified. Typical steady-state reactions for trans-resveratrol hydroxylation included 50 pmol P450 BM3 in 0.25 ml of a 100 mM potassium phosphate buffer (pH 7.4) were performed along with a specified amount of a substrate. To determine the kinetic parameter of several CYP102A1 mutants, 2 to 100 μM of trans-resveratrol was used. An NADPH-generating system was used to initiate reaction solutions (final concentrations: 10 mM glucose 6-phosphate, 0.5 mM NADP+, and 1 IU yeast glucose 6-phosphate per ml). Trans-resveratrol stocks (20 mM) were prepared in DMSO and diluted into the enzyme reactions with the final organic solvent concentration <1% (v/v). Reactions were generally incubated for 10 min at 37° C., and terminated with 105 μl of ice-cold acetic acid/methanol (95/5, v/v).
After centrifugation of the reaction mixture, the supernatant was analyzed by HPLC (Piver et al. 2004). Samples (30 μl) were injected into a Gemini C18 column (4.6 mm×150 mm, 5 μm, Phenomenex, Torrance, Calif.). […] Eluates were detected by UV rays at 320 nm.
The ability of wild-type P450 BM3 and mutants of P450 BM3 to oxidize trans-resveratrol was measured at a fixed substance concentration (100 μM).

Data set [2] is described as follows: Resveratrol metabolite profile by HPLC and GC-MS. Type of data set: biochemical. As to conditions: HPLC, UV 320 nm. On the procedure:
as §1
After centrifugation of the reaction mixture, the supernatant was analyzed by HPLC (Piver et al. 2004). Samples (30 μl) were injected into a Gemini C18 column (4.6 mm×150 mm, 5 μm, Phenomenex, Torrance, Calif.). The mobile phase A was water containing 87 mM of 0.5% acetic acid/acetonitrile (95/5, v/v); whereas the mobile phase B was acetonitrile/0.5% acetic acid (95/5, v/v). […] Eluates were detected by UV rays at 320 nm. […]

Data set [3] in a line: Kinetic parameters of piceatannol formation (3'-hydroxylation of resveratrol). Type of data set: biochemical. Here is the method: as §1, with “Reactions were generally incubated for 10 min at 37° C., and terminated with 105 μl of ice-cold acetic acid/methanol (95/5, v/v).” left out
After centrifugation of the reaction mixture, the supernatant was analyzed by HPLC (Piver et al. 2004). […] Eluates were detected by UV rays at 320 nm.
Kinetic parameters (Km and kcat) were determined using nonlinear regression analysis with GraphPad PRISM software (GraphPad, San Diego, Calif., USA). The data were analyzed using the standard Michaelis-Menten equation: v=kcat[E][S]/([S]+Km), where the velocity of the reaction is a function of the rate-limiting step in turnover (kcat), the enzyme concentration ([E]), substrate concentration ([S]), and the Michaelis constant (Km).

This is an account of results in patent publication US9109237B2, “Method of preparing piceatannol using bacterial cytochrome P450 and composition therefor” (priority 2008, dated 2015).

On to `Oc1ccc(C=Cc2cc(O)cc(O)c2)cc1` [Resveratrol, 3,4′,5-trihydroxystilbene], for which the “Inhibition of human CYP1A2 (in words)” value on human CYP1A2 is “substrate and inhibitor”.

Take `Oc1cc(O)cc(C=Cc2ccc(O)c(O)c2)c1` [Piceatannol, 3,5,3′,4′-tetrahydroxystilbene]: the “Inhibition of human CYP1A2 (in words)” value on human CYP1A2 was “potent inhibitor”.

B1: WT: BM3 wild type; bacterial cytochrome P450 BM3 (CYP102A1) from Bacillus megaterium, SEQ ID NO:16 (protein, listed as Bacillus megaterium)
chain: TIKEMPQPKTFGELKNLPLLNTDKPVQALMKIADELGEIFKFEAPGRVTRYLSSQRLIKEACDESRFDKNLSQALKFVRDFAGDGLFTSWTHEKNWKKAHNILLPSFSQQAMKGYHAMMVDIAVQLVQKWERLNADEHIEVPEDMTRLTLDTIGLCGFNYRFNSFYRDQPHPFITSMVRALDEAMNKLQRANPDDPAYDENKRQFQEDIKVMNDLVDKIIADRKASGEQSDDLLTHMLNGKDPETGEPLDDENIRYQIITFLIAGHETTSGLLSFALYFLVKNPHVLQKAAEEAARVLVDPVPSYKQVKQLKYVGMVLNEALRLWPTAPAFSLYAKEDTVLGGEYPLEKGDELMVLIPQLHRDKTIWGDDVEEFRPERFENPSAIPQHAFKPFGNGQRACIGQQFALHEATLVLGMMLKHFDFEDHTNYELDIKETLTLKPEGFVVKAKSKKIPLGGIPSPSTEQSAKKVRKKAENAHNTPLLVLYGSNMGTAEGTARDLADIAMSKGFAPQVATLDSHAGNLPREGAVLIVTASYNGHPPDNAKQFVDWLDQASADEVKGVRYSVFGCGDKNWATTYQKVPAFIDETLAAKGAENIADRGEADASDDFEGTYEEWREHMWSDVAAYFNLDIENSEDNKSTLSLQFVDSAADMPLAKMHGAFSTNVVASKELQQPGSARSTRHLEIELPKEASYQEGDHLGVIPRNYEGIVNRVTARFGLDASQQIRLEAEEEKLAHLPLAKTVSVEELLQYVELQDPVTRTQLRAMAAKTVCPPHKVELEALLEKQAYKEQVLAKRLTMLELLEKYPACEMKFSEFIALLPSIRPRYYSISSSPRVDEKQASITVSVVSGEAWSGYGEYKGIASNYLAELQEGDTITCFISTPQSEFTLPKDPETPLIMVGPGTGVAPFRGFVQARKQLKEQGQSLGEAHLYFGCRSPHEDYLYQEELENAQSEGIITLHTAFSRMPNQPKTYVQHVMEQDGKKLIELLDQGAHFYICGDGSQMAPAVEATLMKSYADVHQVSEADARLWLQQLEEKGRYAKDVWAG
For the molecule B1, the “Rate of piceatannol formation” value in data set [1] is on record as 0.22 ± 0.01 nmol product/min/nmol P450. Further, the “Metabolites produced on oxidation of resveratrol” value in data set [2] is listed as “only one major metabolite”.

B2: human CYP1A2: Human cytochrome P450 1A2, prepared as disclosed by Kim et al. (2008c); comparison enzyme (protein, UniProt P05177 2-516, looked up)
Cytochrome P450 1A2: ALSQSVPFSATELLLASAIFCLVFWVLKGLRPRVPKGLKSPPEPWGWPLLGHVLTLGKNPHLALSRMSQRYGDVLQIRIGSTPVLVLSRLDTIRQALVRQGDDFKGRPDLYTSTLITDGQSLTFSTDSGPVWAARRRLAQNALNTFSIASDPASSSSCYLEEHVSKEAKALISRLQELMAGPGHFDPYNQVVVSVANVIGAMCFGQHFPESSDEMLSLVKNTHEFVETASSGNPLDFFPILRYLPNPALQRFKAFNQRFLWFLQKTVQEHYQDFDKNSVRDITGALFKHSKKGPRASGNLIPQEKIVNLVNDIFGAGFDTVTTAISWSLMYLVTKPEIQRKIQKELDTVIGRERRPRLSDRPQLPYLEAFILETFRHSSFLPFTIPHSTTRDTTLNGFYIPKKCCVFVNQWQVNHDPELWEDPSEFRPERFLTADGTAINKPLSEKMMLFGMGKRRCIGEVLAKWEIFLFLAILLQQLEFSVPPGVKVDLTPIYGLTMKHARCEHVQARLRFSIN
For B2, the “Kinetic parameters, result in words” value in data set [3] is on record as “kinetic parameters could not be obtained”. Moreover, the “Metabolites produced on oxidation of resveratrol” value in data set [2] was “two major metabolites: piceatannol and other hydroxylated products”.
